# Data published in the nanobody polyreactivity screen of Harvey et al. (2022).
# Test: yeast display, Sf9 membrane polyspecificity reagent, FACS + sequencing; frameworks hold sequencing errors
# How it was run: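 Nanobodies from a synthetic yeast display library (Saccharomyces cerevisiae BJ5465), induced 36–48 hours with galactose, were stained 1 hour at 4 °C with 10% biotinylated, detergent-solubilized Sf9 membrane reagent, enriched on streptavidin microbeads, then FACS-sorted. Anti-HA (expression) and streptavidin (reagent binding) fluorescence set low and high (top ~1%) gates. Polyreactivity labels come from the gate of origin. Genes were colony-PCR amplified, MiSeq 2 × 250 sequenced and filtered by CDR length.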
row,Sequence,polyreactivity (PSR sort gate)
1,QVQLVQSGGGIVQEGGSLRLSCAASGSTFYRNTMGWYRQAPGKERELVAAISRTGASTHYADSVKGRFTISRDNAKNTVYFQMNSLKPEDTAVYYCNAVPAIGKYYGGGYWGQGTQVTVSS,high polyreactivity
2,QVQLVESGGGLVEAGGSLRLICAASGFIFLSNGMGWYRQGPGKERELVAAISSSGGSTYYADSVKGRFTISRDNAKNTVYLQMNSLKPEDTAVYYCAAEQYSVYETGSYDYWGQGTQVTVSS,low polyreactivity
3,QVQLVESGGGLVQAGGSLRLSCAASGIIFRYYAMGWYRQAPGKERELVARITSRGGTYYADSVKGRFTISRDNAKNTVYLQMNSLKPEDTAVYDCAASYLLTHGYAYNYWGQGTQVTVSS,high polyreactivity
4,QVQLVESGGGLVQAGGSLRVSCAASGIIFDYYVMGWYRQAPGQERELVAAISRSCDRTNYADSVKGRFTISRDNAKNTVYLQMNSLKPEDTAVYYCAARVSIRGGGYEYWGQGTQLTVSS,high polyreactivity
5,QVQLVESGGGLVQAGGSLRLSCAASGSIFDYNVMGWYRKAPGKERELVAAITYNDGSTYYADSVKGRFTISRDNAKNTVYLQMNSLKPEDTAVYYCAADYPGGGIYWYFYVYDYDYWGQGTQVTVSS,low polyreactivity
6,QVQLVESGGGLVQAGGSLRLSCAASGSIFYYNAMGWYRQAPGKERELVAAITSGDSTNYADSVKGRFTISRDNAKNPVYLQMNSLKPEDTAVYYCAADYLAALTYYRTYDYWGQGTQVTVSS,low polyreactivity
7,QVQLVESGGGLVQAGGSLRLSCAASGFIFRRYSMGRYRQAPAKERELVAASTSGGGRTYYADSVKGRFTISRDNAKNTVYLQMNSLKPEDTAVYYCARVQRGDYDYWGQGTQVTVSS,high polyreactivity
8,QVQLVESGGGLVQAGGSLRLSCAASGSILYINTMGWYRQAPGKERELVAAITYSGGSTYYADSVKGRLTISRDNAKNTVYLQMNRLKPEDTAVYYCAADGYYGGYNYWGQGTQVTVSS,low polyreactivity
9,QVQLVESGGGLVQAGGSLRLSCAASGSTFVGNVMGWYRQAPGKERELVATISRSGGRTYYADSVKGRFTISRDNAKNTVYLQMNSLKPEDTAVYYCAAGFVYTTASRWGGRTRYDYWGQGTQVTVSS,high polyreactivity
10,QVQLVESGGGLVQAGGSLRLSCAASGSTFATYAMGWYRQAPGKERELVAVITRGGRTYYADSVKGRFTISRDNAKNTVYLQMNSLKPEDTAVYYCAAKAYTYYARIGFDYCGQGTQVTVSS,high polyreactivity
11,PVQLQESGGGLMQAGGNLRLSCAASGYISTHYDMDWYRQAPGKERELVARIDDGAITNYADSVKGRFTISRDNAKNTVYLQMNSLKPEDTAVYYCAVYSGDDYYHDYWGQGTQVTVSS,low polyreactivity
12,QVQLVESGGGLVQAGGSLRLSCAASGRTFYRYVMGWYRQAPGKERELVAAIRSSGTSTYYADSVKGRFTISRDNAKNTVYLQMNSLKPEDTAVYYCARDSYRGYVYSLDYWGQGTQVTVSS,high polyreactivity
13,QVQLVESGGGLDQAGGSLRLSCAASGSIFTYYAIGWYRQAPGKERELVADISQRGGSTYYADSVKGRFTISRDNAKNTVYLQMISLKPEDTAVYYCATRARYTWRAFEYWGQGTQVNVSS,low polyreactivity
14,QVQLVESGGGLVQAGGSLRLSCAASGNTFRYNTMGWYRQAPGKERELVAVITRRGSSTYYADSVKGRFTISRDNAKNTVYLQMNSLKPEDTAVYYCAAAPYYVTLVTRRDYWGQGTQVTVSS,high polyreactivity
15,QVQLVESGGGLVQAGGSLRLSCAASGSTFLSYAKGWYRQATGKEREVVAAISGRGGSTYYADSVKGRFTISRDNAKNTVYLKMNSLKPEDTAVYYCARVYRPSADTYNYWGQGTQVTVSS,high polyreactivity
16,QVQLVESGGGLVQAGGSLRLSCAATGIFVVYAMGWYREAPGKERELVAAIRSDASTNYADSVKGRFTISRDNAKNTVYLQMNILKPEDTAVYYCNTAQLVSDEFDYWGQGTQVTVSS,low polyreactivity
17,QVQLVESGVGIVQAGGSLRLSCAASGFTFSSNAMGWYSQAPGKEREFVADISIIGGDTTYADSVKGRFTISRDNAKNTVYFQMNSLKAEDTADYYCIAKPPGWFWGGFSYNRYYYWGQGTQVTVSS,low polyreactivity
18,QVQHVESGGGLFQAGGSLRLSCAASGITFEYYAMGWYRQAPGKERELVAAISGDGSTYYADSVKGRFTISRDNAKNTVYLQMNSLKPEDTAVYYCAAVYYRGFLYYRYYYWGQGTQVTVSS,high polyreactivity
19,QVQLVESGGGLVQAGGSLRLSCAASGRTIRRYAMGWYRQAPGKERELVAAISYSGGSTYYADSVKGRFTISRDNAKNTVYLQMNSLKPEDTAVYYCAARYLGKKYYYWGQGTQVTVSS,high polyreactivity
20,QVQLLESGGGLVQAGGSLRLSCAASGRIFRAYAMGWYRQAPGKERELVAAISWRYGSTYYADSVKGRFTISRDNAKNTVYLQMNSVKPEDTAVYYCAAEYDWPGYDYWGQGTQVTVSS,high polyreactivity
21,QVQLVESGGGLVQAGGSLRLSCAASGSIFSEYAMGWYRQAPGKERELVAAISKSTGRTYYADSVKGRFTISRDNAKNTVYLQMNSLKPEDTAVYYCNAVRRAFIASYDYWGQGTQVTVSS,high polyreactivity
22,QVQLVESGGGLVQAGASLRLSCAASGRTFAWYAMGWYRQAPGKERELVAAISSGGSTYYADSVKGRFTISRDNAKISVYLQMNSLKPEDTAVYDCAAEWHYIYAYDYWGQGTKVTVSS,low polyreactivity

row,Sequence,polyreactivity (PSR sort gate)
1,QVQLVESGGCLVQAGGSLRLSCAASGLTFKWNTMGWYRQAPGKESELVAAISWRVVSTYYADSVKGRFTISRDNAKNTVYLQMNSLKPEDTAVYYDYWGQGTQVTVSS,low polyreactivity
2,QVQLVESGGGLVQAGGSLRLSCAASGLILRKYAMGWYRQAPGKEREFVAAITQTGSRTYYADSVKGRFTISRDNAKNTVYLQMNSLKPEDTAVYYCNAVNYRSSRDSGYWGQGTQVTVSS,high polyreactivity
3,QVQLVESGGGLVQAGGILRLSCAAYGRTSSYTMGWDIQANGQERELVAAITRRGGSTYYADSVKGRFTISRDHAKNSVYLQMNSLKPEDTAVYYCAASYRGEYDYWGQGTQVTVSS,high polyreactivity
4,QVQLVASGGGLVLAGGILRLSCAASGSTFVSNALGWYRLAPGKERALVAVITFRGGTTYYADSVKGRFTISRDNAKNTVYLQMNSLKPEDTAGYYCAARSYQYSYSFYWGQGTQVTVSS,high polyreactivity
5,QVQLVESGGGLVQAGGSLRLSCAASGSTFWYNAMGWYRQAPGTERELVATITNSGGSTYYADSVKGRFTISRDNAKNTVYLQMNSLKPEDTAVYYCATDVYSGALLKYDYWGQGTQVTVSS,low polyreactivity
6,QVQLVESGGGLVQAGGSLRLSCAASGITFSGNTMGWYRQAPGKERELVAAISSGGSTYYADSVKGRFTISRDNAKNTVYLQMNSLKPEDTAVYYCAVDYFYQDGRGYNEYWGQGTQVTVSS,low polyreactivity
7,QVQLLESGGGLVQAGGSLRLSCAASGSTFCANAMGWYRQAPGKVWELVARITYSGGSTYYADSVKGRFTISRDNAKNTVYLQMNSLKPDDTAVYFCAADLPGKFDYWGQGTQVTVSS,low polyreactivity
8,QVQLVESGGGLVQAGGSLRLSCAASGITFEPYAMGWYRQAPGKEREFVADITWSGGSTYYADSVKGRFTISRDNAMNTGYLQMNSLKPEDTAVYYCAADGWTSYWSDYWGQGTQVTVSS,low polyreactivity
9,QVQLVESGGGLVQAGGILRLSCAASGIISYDYDMGWYRPSPGKERELVAAISTSGGTTYYADSVKGRFTISRDNAKNTVYLQMNSLKPEDTAVYYCAADNYVGYHWYNYWGQGTQVTVSS,high polyreactivity
10,QVQLVESGGGLVQAGGSLRLSCAASGGIFGPYAMGWYRQAPGKERELVATITRNGGSTRYADSVKGRFTISRDNAKNTVYLQMNSLKPEDTAVYYCAARGYLDMGYWGQGTQVTVSS,high polyreactivity
11,QVQLVESGGCLVQAGGSLRLSCSSSGFIFFYNMGWYRQAPGKERDLVADISTGGSTNYADSVKGRFTISRDNAKNTVYLQMNSLKQEDTAVYYCAAVYYNVYQYEPWYDYWGQGTQVTVSS,low polyreactivity
12,QVQLVESGGGLVHAGGSLRLSCAASGRIFFRYAMGWYRQSPGKEREFVATITWSGGRTHYADSVKGRFTISRDNAKNTVYLQMNSLKPEDTAVYYCAASYHRYAFDYWGQGTQVTVSS,high polyreactivity
13,QVQLVESGGGLVQAGGSLRLSCAASGGIFPQYAMGWYRQAPGKERQLVAAISRRGGRTYYADSVKGRFTISRDNAKNTDYLQMNSLKPEDTAVYYCNAGGSSGYDYWGQGTQVTVSS,high polyreactivity
14,QVQLVESGGGLVQAGGSLRLSCAASGNTIIRYAMGWYRQAPGKERELVAAISYSGGRTYYADSVKGRFTISRDNAKNTVYLQMNSLKPEDTAVYYCNAASRYGGDYWGQGTQVTVSS,low polyreactivity
15,QVQLVESGGGLVQAGGSLRLSCAASGRIFKRYAMGWYRQAPGKERELVASITTSGDSTYYADSVKGRFTISRDNAKNTVYLQMNSLKPEDTAVYYCAARSYRGRRYDYWGQGTQVTVSS,high polyreactivity
16,QVQLVESGGGLVQAGGSLRLSCAASGRIFVFYAMGWYRQAPGKERELVAAITASSTRTYYADSVKGRFTISRDHAKNTVYLQLNSLKPEDTAVYYCARDIRQYILYGRGDYWGQGTQVTVSS,low polyreactivity
17,QVQLVESGGGLVQAGGSLRLSCAASGSTFPYVMGWYTPAPGKERELVAAISQRTGSTYYADSVKGRFTISRDNAKNSVYLQMNILKPEDTAVYYCAKPVYLSPSRYDYWGQGTQVTVSS,high polyreactivity
18,QVQLVESGGGLVQAGGSLRLSCAASGSIFYGYAMGWYRQAPGKERELVAAITGGGSTNYADSVKGRFTISRDNAKNTVYLQMNSLKPEDTAVYYCAAAPVSLPDYGYWGQGTQVTVSS,low polyreactivity
19,QVQLVESGGGLVQAGGSLRLSCAASGFIFGVYAMGWYRKATGKERELVAAITTRAGTNYADSVKGRFTISRDNAKNTVYLQMNSLKPEDPAVYYCNAVGWYLLPYDYWGQGTQVTVSS,low polyreactivity
20,QVQLEESGGCLVQAGGSLRLSCAASGFTIRDYTMGWSRQAPGKERELVAPISRSGGSTYYADSVKGRFTISRDNATNTVYLQMYSLKPEDTAVYYFAALWHAVFYADYDYWGQGTQVSVSS,high polyreactivity
21,QVQLVESGGCLVQAGGSLRFSCAASGIIFYGYAMGWYRQAPGKERELVAAISERGGSTYYADSVKGRFTISRDNAKNTVYLQMNSLKPEDTAVYYCAVDYYYLMYWGQGTQVTVSS,low polyreactivity
